Assay results published in patent US6645934B1, “Peptide with radio protective effect” (Eberhard-Karls-Universität Tübingen, priority 1997, dated 2003).
Bridges are numbered along the chain shown (N, C = ends).

How the values were obtained:
[1] = biological target: T1, TPCK-treated trypsin (Bos taurus, UniProt P00760); test: Protease inhibition test, trypsin; assay type: biochemical; details: FIG. 8
T1 sequence (P00760 24-246): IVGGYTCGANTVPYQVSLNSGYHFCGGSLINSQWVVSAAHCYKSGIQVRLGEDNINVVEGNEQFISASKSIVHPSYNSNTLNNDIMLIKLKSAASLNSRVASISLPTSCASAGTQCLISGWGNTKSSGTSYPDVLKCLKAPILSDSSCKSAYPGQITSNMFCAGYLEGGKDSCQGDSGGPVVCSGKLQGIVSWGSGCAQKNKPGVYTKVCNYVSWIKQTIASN
Method: (§1) A batch containing 50 μl TLCK-treated chymotrypsin (0.1 mg/ml) was incubated for 10 minutes in 12.5% DMSO and 87.5% PBS with 50 μl of a solution having BBI (BBI), reduced BBI (BBI-R), or reduced and alkylated BBI (BBI-A) together with 50 μl PBS and 50 μl of the chymotrypsin substrate acetyl-A-A-P-F-pNa (0.5 mg/ml, of Bachem Heidelberg, Germany). The colored reaction product was detected at 405 nm in a spectrophotometer.
If inhibition of the protease trypsin (see Example 4, FIG. 8) was to be determined, TPCK-treated trypsin (0.1 mg/ml) and the peptide CBZ-R-pNa (1 mg/ml) as substrate were used, and the test was otherwise performed as described.

[2] = tested on: Normal human fibroblasts; test: Clonogenic assay with normal human fibroblasts under ionizing radiation; assay type: cell-based; details: for radioprotective effect compared with complete BBI and the other peptides (clonogenic assay): single dose of 4 Gy, peptides 80 μM, complete BBI 10 μM, FIG. 5; for influence on survival of the cells without irradiation (clonogenic assay): 0 Gy, 10 μM, 16 h incubation, FIG. 1
Method: The examination of the radioprotective effect of BBI and of modified forms of BBI was performed as a so-called clonogenic assay, which is described, for example, in K. Dittmann et al., Radiotherapy and Oncology 34 (1995), pages 137-143, and is explained briefly below.
(§2) Normal human fibroblasts were cultivated in Dulbecco's Modified Eagles Medium (DMEM) with 10% fetal calf serum under standard conditions. At each cell passage the number of cells was counted, and the cells were seed with a density of 2×10^4/cm^2 when subcultures were set up.
(§3) For the clonogenic assay, secondary fibroblasts were trypsinated with 0.05% trypsin and 0.1 EDTA, and seed at a cell density of 50 cells per cm^2 into six-well tissue culture dishes. The cells were cultivated with 2 ml DMEM with 20% fetal calf serum per well.
(§4) After 24 hours the medium was removed and the cells were incubated for 16 hours either in additive-free control mediums (“0” in the Figures) or in medium that contained 10 μM of either BBI or a modified BBI form or a BBI fragment. The nonapeptides and heptapeptide according to the present invention (see Example 3) were used at a concentration of 80 μM.
This was followed by irradiation with ionizing radiation, the energy dose being either 2 or 4 gray (Gy). This energy dose corresponds to the entire converted radiation energy given in mass unit Joule/kg=(gray). A 6 MeV linear accelerator (Mevatron, Siemens) was used for irradiation.
(§5) The cells were then cultivated for a further eight days in BBI-free culture medium in order to allow colonies to form. The cells were then fixed, stained, and counted; in the Figures, “K” indicates the absolute number of clones counted.
(§6) A clone is a colony or a cell cluster resulting from the division of one cell during the eight-day cultivation period. The number of clones corresponds to the degree to which the human fibroblasts survived the irradiation. This will therefore also be referred to hereinafter as the “clonogenic survival” of the cells. If many cells die when the cells are irradiated, then only a few clones will form after eight days; if many cells survive, then many clones may be counted after eight days of cultivation. The clonogenic survival of the cells after irradiation is thus a direct indication of the radioprotective effect of the BBI product being used.

[3] = tested on: human skin fibroblasts; test: Clonogenic assay with human skin fibroblasts under UV-B irradiation; assay type: cell-based; details: UV-B radiation at 100 J/m^2, FIG. 6; for effect on clonogenic survival compared with complete BBI / effect on clonogenic survival, further increase over that of complete BBI: peptides 80 μM vs BBI 10 μM; for increase in clonogenic survival of the human skin fibroblasts compared to the untreated cells: BBI 10 μM, peptides 80 μM
Method: as §2, §3, §4, §5, §6
Once again a clonogenic assay was performed, using complete BBI or the four peptides P1 through P4.
In this case irradiation was performed with UV-B radiation at 100 J/m^2.

[4] = biological target: TLCK-treated chymotrypsin (Bos taurus, UniProt P00766); test: Protease inhibition test, chymotrypsin; assay type: biochemical
Method: as §1
A batch without BBI (0) was run as control, and its measured value was taken as 100% chymotrypsin activity (% CH). The blank value with buffer alone is labeled “-” and indicates the cuvette and buffer solution background.

[5] = biological target: trypsin (TPCK-treated); test: cell-based or functional assay
[6] = biological target: chymotrypsin (TLCK-treated); test: cell-based or functional assay
[7] = tested on: Normal human fibroblasts; details: publication of Dittmann et al.; cited from earlier work
[8] = FIG. 2, control without BBI = 100% chymotrypsin activity

## Peptide P1: nonapeptide SEQ ID NO: 1, terminal cysteine residues crosslinked with a disulfide bond; acetyl and amide protective groups (Ac-CALSYPAQC-NH2; disulfide 1-9; SMILES CC(=O)N[C@H]1CSSC[C@@H](C(N)=O)NC(=O)[C@H](CCC(N)=O)NC(=O)[C@H](C)NC(=O)[C@@H]2CCCN2C(=O)[C@H](Cc2ccc(O)cc2)NC(=O)[C@H](CO)NC(=O)[C@H](CC(C)C)NC(=O)[C@H](C)NC1=O)
[1]; 0.1 mM
  inhibition of the activity of trypsin: no effect on the activity of trypsin
[2]
  radioprotective effect compared with complete BBI and the other peptides (clonogenic assay): even more pronounced radioprotective effect than peptides P2 (heptapeptide) and P4
[3]
  effect on clonogenic survival compared with complete BBI: just as pronounced an effect as the addition of complete BBI
[4]; 0.1 mM, FIG. 7
  inhibition of chymotrypsin activity: only a few percent or not at all

## Peptide P2: heptapeptide SEQ ID NO: 3, no cysteine residues, linear; acetyl and amide protective groups (Ac-ALSYPAQ-NH2)
[1]; 0.1 mM
  inhibition of the activity of trypsin: no effect on the activity of trypsin
[3]
  effect on clonogenic survival, further increase over that of complete BBI: 20%
[4]; 0.1 mM, FIG. 7
  inhibition of chymotrypsin activity: only a few percent or not at all

## Peptide P4: nonapeptide SEQ ID NO: 2 (serine to valine exchange), terminal cysteines not crosslinked; acetyl and amide protective groups (Ac-CALVYPAQC-NH2; cysteine pairing not given here)
[1]; 0.1 mM
  inhibition of the activity of trypsin: no effect on the activity of trypsin
[3]
  increase in clonogenic survival of the human skin fibroblasts compared to the untreated cells: significantly increased
  effect on clonogenic survival compared with complete BBI: less of an effect than complete BBI
[4]; 0.1 mM, FIG. 7
  inhibition of chymotrypsin activity: only a few percent or not at all

## Peptide P3: nonapeptide SEQ ID NO: 1, terminal cysteine residues not crosslinked; acetyl and amide protective groups (Ac-CALSYPAQC-NH2; cysteine pairing not given here)
[1]; 0.1 mM
  inhibition of the activity of trypsin: no effect on the activity of trypsin
[2]
  radioprotective effect compared with complete BBI and the other peptides (clonogenic assay): even more pronounced radioprotective effect than peptides P2 (heptapeptide) and P4
[3]
  effect on clonogenic survival, further increase over that of complete BBI: 20%
[4]; 0.1 mM, FIG. 7
  inhibition of chymotrypsin activity: only a few percent or not at all

B1: Bowman-Birk Protease Inhibitor (BBI), complete (protein, soybean, UniProt P01055 40-110, looked up)
chain: DDESSKPCCDQCACTKSNPPQCRCSDMRLNSCHSACKSCICALSYPAQCFCVDITDFCYEPCKPSEDDKEN
[5]
  inhibition of trypsin activity at 0.05 mM BBI (substrate CBZ-R-pNa): > 90%
  inhibition of trypsin activity at 0.1 mM BBI (substrate CBZ-R-pNa): > 90%
[6]
  inhibition of chymotrypsin activity (substrate acetyl-A-A-P-F-pNa, 405 nm): 80%
  inhibition of chymotrypsin activity at 0.05 mM BBI: 80%
  inhibition of chymotrypsin activity at 0.1 mM BBI: 90%

B2: BBI-R: complete BBI pretreated with the reducing agent dithiothreitol (DTT), so that all the disulfide bonds were cleaved (protein)
chain: B1 chain
modifications: cyclised or stapled
notes: complete BBI pretreated with the reducing agent dithiothreitol (DTT), so that all the disulfide bonds were cleaved
[2]
  influence on survival of the cells without irradiation (clonogenic assay): does not influence survival of the cells within experimental error
[4]; [8]
  inhibition of chymotrypsin activity: about 30%

B3: Bowman-Birk Protease Inhibitor (protein)
chain: B1 chain
notes: complete BBI (from Sigma Biochemicals)
[1]; 0.05 mM
  inhibition of the activity of trypsin: more than 90%
[1]; 0.1 mM
  inhibition of the activity of trypsin: more than 90%
[2]
  influence on survival of the cells without irradiation (clonogenic assay): does not influence survival of the cells within experimental error
[3]
  increase in clonogenic survival of the human skin fibroblasts compared to the untreated cells: approximately 40%
[7]
  radiation-induced mortality of cultivated human fibroblasts: decreases the radiation-induced mortality
[4]; 0.05 mM, FIG. 7
  inhibition of chymotrypsin activity: 80%
[4]; 0.1 mM, FIG. 7
  inhibition of chymotrypsin activity: 90%
[4]; [8]
  inhibition of chymotrypsin activity: 80%

B4: reduced BBI (BBI-R) (protein, soybean, UniProt P01055 40-110, looked up)
chain: B1 chain
modifications: pretreated with dithiothreitol (DTT) so that all the disulfide bonds in the BBI were cleaved (cysteines reduced)
[6]
  inhibition of chymotrypsin activity (substrate acetyl-A-A-P-F-pNa, 405 nm): 30%

B5: BBI-A: BBI first reduced, cysteine residues then alkylated with iodoacetamide to prevent reoxidation (protein)
chain: B1 chain
[2]
  influence on survival of the cells without irradiation (clonogenic assay): does not influence survival of the cells within experimental error
[4]; [8]
  inhibition of chymotrypsin activity: no longer capable of inhibiting chymotrypsin activity
